Measured values as given in publication PMC9547791 (Acta Neuropathologica, 2022).

Molecular target: T1, STI1 TPR2A domain (residues 217-352) (mouse, UniProt Q60864 217-352)
T1 construct: STI1, mouse, TPR2A domain, residues 217-352; The tag is TEV-cleavable
Conditions: both partners purified

T1 sequence (Q60864 217-352): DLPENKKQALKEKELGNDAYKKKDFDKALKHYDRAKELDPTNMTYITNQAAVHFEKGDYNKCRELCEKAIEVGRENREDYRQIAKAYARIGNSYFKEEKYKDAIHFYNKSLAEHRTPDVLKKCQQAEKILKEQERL

binding result: binds
B1: Hsp90 pentapeptide (MEEVD), C-terminus of Hsp90 (peptide)
peptide: MEEVD
notes: pentapeptide motif of the C-terminus of Hsp90; also called Hsp90 peptide
